Experimental data reported in patent US20160230226A1.

Biological target: IL13Rα2 (human) (UniProt Q14627)
Experiment: cell-based or functional assay

Chain of UniProt Q14627 (Q14627 27-380): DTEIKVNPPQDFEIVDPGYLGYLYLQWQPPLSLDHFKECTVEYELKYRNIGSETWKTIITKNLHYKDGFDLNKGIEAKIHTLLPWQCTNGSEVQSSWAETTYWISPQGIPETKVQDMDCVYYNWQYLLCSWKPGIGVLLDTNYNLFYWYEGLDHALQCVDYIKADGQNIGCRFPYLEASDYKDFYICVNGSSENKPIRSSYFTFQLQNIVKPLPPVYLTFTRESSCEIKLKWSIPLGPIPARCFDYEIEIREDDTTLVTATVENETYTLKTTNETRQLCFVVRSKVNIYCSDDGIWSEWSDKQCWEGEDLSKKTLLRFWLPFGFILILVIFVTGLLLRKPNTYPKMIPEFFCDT

IL-13 concentration needed for the same CCL26 or periostin gene induction in IMR90 cells pre-stimulated with TNFα (elevated IL13Rα2) versus not pre-stimulated: 10 fold
Substance: IL-13 (from UniProt P35225 35-146) (ligand)
